Results on two proteins are retold here after PMC5785501, “Crystal structure of lipid A disaccharide synthase LpxB from Escherichia coli” (Nature Communications, 2018).

Series [1] concerns the molecule itself. Description: crystal structure; X-ray, one molecule in the asymmetric unit, dimer by crystal symmetry; LiCl, PEG 4000, 0.1 M Tris-HCl pH 8.6; apo and soaked with 10 mM UDP-GlcNAc.
Series [2] deals with the molecule itself. Nature of the series: AUC; LpxB6S at 1 mg/ml, 5,000-16,000 r.p.m. for 10 h each, absorbance at 280 nm; mass modelled.

B1: LpxB7S (LpxB6S with M207S) (enzyme, Escherichia coli, UniProt P10441 1-382, looked up)
chain: MTEQRPLTIALVAGETSGDILGAGLIRALKEHVPNARFVGVAGPRMQAEGCEAWYEMEELAVMGISESSGRSRRSSHIRADLTKRFGELKPDVFVGIDAPDFNITLEGNLKKQGIKTIHYVSPSVWAWRQKRVFKIGRATDLVLAFLPFEKAFYDKYNVPCRFIGHTMADAMPLDPDKNAARDVLGIPHDAHCLALLPGSRGAEVESLSADFLKTAQLLRQTYPDLEIVVPLVNAKRREQFERIKAEVAPDLSVHLLDGMGREAMVASDAALLASGTAALECMLAKCPMVVGYRMKPFTFWLAKRLVKTDYVSLPNLLAGRELVKELLQEECEPQKLAAALLPLLANGKTSHAMHDTFRELHQQIRCNADEQAAQAVLELAQ
notes: lipid A disaccharide synthase LpxB, Escherichia coli; Native LpxB7S, apo and soaked with UDP-GlcNAc (UDP seen); also called LpxB6SM207S; source: E. coli BL21 (DE3), purified (Ni-NTA, Ulp1 cleavage, Superdex 200); not shown: His tag, N-terminal, cleaved; SUMO, N-terminal, cleaved
For B1, in series [1], the binding result is reported as “binds”.

B2: LpxB6S (E. coli lipid A disaccharide synthase LpxB with V66S, V68S, L69S, L72S, L75S, L76S) (enzyme, Escherichia coli, UniProt P10441 1-382, looked up)
chain: MTEQRPLTIALVAGETSGDILGAGLIRALKEHVPNARFVGVAGPRMQAEGCEAWYEMEELAVMGISESSGRSRRSSHIRADLTKRFGELKPDVFVGIDAPDFNITLEGNLKKQGIKTIHYVSPSVWAWRQKRVFKIGRATDLVLAFLPFEKAFYDKYNVPCRFIGHTMADAMPLDPDKNAARDVLGIPHDAHCLALLPGSRGAEVEMLSADFLKTAQLLRQTYPDLEIVVPLVNAKRREQFERIKAEVAPDLSVHLLDGMGREAMVASDAALLASGTAALECMLAKCPMVVGYRMKPFTFWLAKRLVKTDYVSLPNLLAGRELVKELLQEECEPQKLAAALLPLLANGKTSHAMHDTFRELHQQIRCNADEQAAQAVLELAQ
notes: lipid A disaccharide synthase LpxB, Escherichia coli; residues up to 382 named in the structure; the gene was cloned from strain BL21; also called soluble LpxB; solubilized LpxB; source: E. coli BL21 (DE3), purified (Ni-NTA, Ulp1 cleavage, Superdex 200); not shown: His tag, N-terminal, cleaved; SUMO, N-terminal, cleaved
In the case of B2, the “stoichiometry N” value in series [2] came to 2.

For orientation: stoichiometry N means a count of units in the complex or per binding partner.
